Measured values published in the supplement of paper PMC9170038.

test system: MS2 coat protein; assay: apparent KD of MS2 coat protein; higher = weaker reporter binding; details: Eterna round: R107; input ligand: none
Outline: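 Designed RNA switches were transcribed on-chip from Illumina sequencing clusters. SNAP-549-labelled MS2 coat protein was titrated onto them in twofold steps from 0.7 or 1.5 nM to 3 µM in 100 mM Tris-HCl pH 7.5, 80 mM KCl, 4 mM MgCl2, either without or with constant ligand. Apparent KD reflects the per-design median of normalised cluster binding-curve fits.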

“UUCAGCUAGUCGGCCGCCACUACACGAGGAUCACCCGUGUUCCUAAAACACUGCUUCGGCAGUGGUAGGACCGGGACUAGCUGAG” and “AACAUGAGGAUCACCCAUGUCUGAACUGAAGGAGCGCUAAAUAAGGCAGGUAGGUCGCGGAAUUUUGUGUAUAUAUAUAUAUGGG [9.G]” are within 1.5-fold of each other in “apparent KD of MS2 coat protein” value: 27.9 nM for the first, 27.1 nM for the second.

Going from “GCACAAGAUGGAAGGAGCGCUGGUAAAAGUCACAUGAGGAUCACCCAUGUGCUCCUUGCCGAGCAGGUAGGUCGCCAUCUUGUGC [SSAB NP+V+V2 #4]” to “GGAGCUACGUCGGCCGCCACUAGCGGUAAUUACGUGUACAUGAGGAUCACCCAUGUAAUAUGGACUAGGACCGGGACGUAGCUCC [Salmon]”, the “apparent KD of MS2 coat protein” value falls from 27.8 nM to 13.3 nM (2.1-fold).

First: UUCAGCUAGUCGGCCGCCACUACAAGAGGAUCACCCUUGUAAUCCUAACACUGCUUCGGCAGUGGUAGGACCGGGACUAGCUGAG
Second: GUAAUGAUAAGAAGGAGCGUCGAAAAUGGGUAAACAUGAGGAUCACCCAUGUAAAGGGAACGACAGGUAGGUCGCUUAUUAUUAC [AstromonsSSArgB#21]
The “apparent KD of MS2 coat protein” value of the first is 14-fold lower: 14.4 nM for the first, 207 nM for the second.

Compared with “CUCCCGUGGUCGGCCGCCACUGGAGGCCUUGCGCGACAUGAGGAUCACCCAUGUGGGCCCGGCGUCAGGACCGGGAUCGCGUGAG [#1 Same State - Tryptophan B Attempt #11 (HarryS)]”, “UAUCCACAUGAGGAUCACCCAUGUAGGGAAGGAGCGGUGAUUUCACCAGGUAGGUCGCCUUACUGAGGAGAGCCGGUGGAAUCGU [Exclusion - Arginine A (Freestyle 31)]” is 1.5-fold higher in “apparent KD of MS2 coat protein” value: 16.1 nM for the first, 24.9 nM for the second.

First: GACAUGAGGAUCACCCAUGUUUGCUAUGAAGGAGCGUCGGAAAUGACAGGUAGGUCGCAUAGUAGGCCUUGUAUUUUGUGUGUUU [EAA #8]
Second: GUCUCUGGGAGAAGGAGCGUGAAGACAUGAGGAUCACCCAUGUAGAGGCGCCGACGGCGUUCGCAGGUAGGUCGCUCCCAGAGAC [#1 Same State - Arginine B Attempt #18 (HarryS)]
The “apparent KD of MS2 coat protein” value of the first is 2.4-fold lower: 10.1 nM for the first, 23.9 nM for the second.

“ACAUGAGGAUCACCCAUGUAACAACGGGAAGGAGCGCCAAACAAGGCAGGUAGGUCGCCCACAUGAGGAUCACCCAUGUGUUGGG [Exclusion Arginine A GF 27]” and “UGUAUGUGAUUUGAUACCAGACCAGCGGGUGUUACUUGAGGAACACCCAAGUAGGUUUGGGUCCCUUGGCAGCAAAUCGCAUACU [SS Theo B #24 Ms9]” are within 1.5-fold of each other in “apparent KD of MS2 coat protein” value: 30 nM for the first, 39.2 nM for the second.

“CACAUGAGGAUCACCCAUGUCUGAACUGAAGGAGCGCUAAACAAGGCAGGUAGGUCGCGGAAUUUUGUGUGCAUAUGCACACGGG [9.R]” and “UAUUAUAACCGAAGGAGCGGGAAAGAUGAUUUUUAAUAUUAACAUGAGGAUCACCCAUGUACCCAGGUAGGUCGCGGAUAUUAUU [Default title]” are within 1.5-fold of each other in “apparent KD of MS2 coat protein” value: 17.2 nM for the first, 19.5 nM for the second.

“ACCUACACGGAGACGUGUAGGAGUAAUGAUACCAGCAUGGAGACAUGCCCUUGGCAGCGUUACAUGAGGAUCACCCAUGUAGUGC [ETHA #5]” and “AAAAUAUACGGAAGGAGCGUGUAAGAUUAAGAACAUGAGGAUCACCCAUGUUUUAAGGGAACACAGGUAGGUCGCCGUAUAUAAA [11.N]” are within 1.5-fold of each other in “apparent KD of MS2 coat protein” value: 10.7 nM for the first, 11.9 nM for the second.

Going from “UACUUGCUGACGGCCGCCACUAGAACAUGAGGAUCACCCAUGUACGGCGGCCGUCAUGGGUGGACUAGGACCGGGUCAGCAAGAU [(Trp1)-(Ms2)-(T)'-(M)'-(Trp2)_Design6]” to “UUUACAUGAGGAUCACCCAUGUGCCAUGAUACCAGACAUGAAAAUGUCCCUUGGCAGCAUGGGUGUAGCGUCGGGAAACCGACGC [Kohoutovice]”, the “apparent KD of MS2 coat protein” value rises from 12 nM to 35 nM (2.9-fold).

“AAAACUCAUGGCUUAUAUCCGUGUCUCGAAGGAGCGUACAGCGGUACAGGUAGGUCGCGAGACAUGAGGAUCACCCAUGUGUAAA [XArg-A 20 V1&2 original #dotplot2>1]” and “AAAUAAAUACAUGAGGAUCACCCAUGUGAAGGAGCGCCCGUUAGGGCAGGUAGGUCGCACAUGAAUAACUCCGCGCGAAAGCGCA [MAT - Exclusion Arginine A - Mod of Eli - D10]” are within 1.5-fold of each other in “apparent KD of MS2 coat protein” value: 38.1 nM for the first, 38.7 nM for the second.

same assay, conditions: Eterna round: R107; input ligand: theophylline 20 uM

“UUAAUCAUAUAUGAAAACAUAUAUGCAGAAGGAGCGUGAUAAAACACAGGUAGGUCGCUGAAGGGAACAUGAGGAUCACCCAUGU [AstrosSSArgA#2]” and “UUCAGCUAGUCGGCCGCCACUACACGAGGAUCACCCGUGUUCCUAAAACACUGCUUCGGCAGUGGUAGGACCGGGACUAGCUGAG” are within 1.5-fold of each other in “apparent KD of MS2 coat protein” value: 49 nM for the first, 33 nM for the second.

Going from “AUUGGGUUAUCAGAUACCAGACUAUUCUAGACAUGAGGAUCACCCAUGUAUUGGGUUUUCGUCCCUUGGCAGCUGUUAAGUUUAA [JR_SSTheophyB_Sub005]” to “AACAUGAGGAUCACCCAUGUCUGAACUGAAGGAGCGCUAAAUAAGGCAGGUAGGUCGCGGAAUUUUGUGUAUAUAUAUAUAUGGG [9.G]”, the “apparent KD of MS2 coat protein” value falls from 195 nM to 34.2 nM (5.7-fold).

First: ACGUCUCGUUUACUCGUGGGUUAGCUCGAUACCAGUAUUCAAACUUACCCUUGGCAGCGACAUGAGGAUCACCCAUGUGCGAAGA [XTheo A #23]
Second: GCACAAGAUGGAAGGAGCGCUGGUAAAAGUCACAUGAGGAUCACCCAUGUGCUCCUUGCCGAGCAGGUAGGUCGCCAUCUUGUGC [SSAB NP+V+V2 #4]
The “apparent KD of MS2 coat protein” value of the first is 1.6-fold lower: 20.5 nM for the first, 31.8 nM for the second.

“UCACAUGAGGAUCACCCAUGUACAGGCGAUACCAGCCGUACAUUGGGCCCUUGGCAGCGCACCGAGACCUUUUAAAGCACUUCGG [Er]” and “UAACAUGAGGAUCACCCAUGUAUAGUCGAUACCAGCUCAAGGGAGAGCCCUUGGCAGCGACACUGGUAUCCAUGGGUGUGGAUAC [(Ms2)-(Theo)-(T)'-(M)'-(T)''_Design3]” are within 1.5-fold of each other in “apparent KD of MS2 coat protein” value: 103 nM for the first, 86.2 nM for the second.

“CACUACAUGAGGAUCACCCAUGUAUACUGACGAGGACCGGUACGGCCGCCACUCGAACCGAAACCGACUUCAUUCUGUGUACCAU [theeternabot_sameState_MS2_Trp_A_26]” and “AGUACAUGAGGAUCACCCAUGUAUCGGUACCGAGGACCGGUACGGCCGCCACUCGCAGGACAUGAGGAUCACCCAUGUGCCGCCG [SSTA DOUBLE!!! :-D #9]” are within 1.5-fold of each other in “apparent KD of MS2 coat protein” value: 22.7 nM for the first, 22.6 nM for the second.

Going from “AUAAUGGGUUUCGGACUAUCAUGGAAUGAUACCAGAUACUUAGAAAUCCCUUGGCAGCAUGAGGACAUGAGGAUCACCCAUGUAU [Th A Ex t1]” to “GGAGCUACGUCGGCCGCCACUAGCGGUAAUUACGUGUACAUGAGGAUCACCCAUGUAAUAUGGACUAGGACCGGGACGUAGCUCC [Salmon]”, the “apparent KD of MS2 coat protein” value falls from 78.9 nM to 21.8 nM (3.6-fold).

Compared with “UUCAGCUAGUCGGCCGCCACUACAAGAGGAUCACCCUUGUAAUCCUAACACUGCUUCGGCAGUGGUAGGACCGGGACUAGCUGAG”, “GUAAUGAUAAGAAGGAGCGUCGAAAAUGGGUAAACAUGAGGAUCACCCAUGUAAAGGGAACGACAGGUAGGUCGCUUAUUAUUAC [AstromonsSSArgB#21]” is 21-fold higher in “apparent KD of MS2 coat protein” value: 17.3 nM for the first, 356 nM for the second.

Compared with “UAUAUAUGGAUGGAUACCAGCAGAGAAAACGUUUAUCCUAACAUGAGGAUCACCCAUGUAUGCCCUUGGCAGCUGUUUAUAUAUA [8.J]”, “CUCCCGUGGUCGGCCGCCACUGGAGGCCUUGCGCGACAUGAGGAUCACCCAUGUGGGCCCGGCGUCAGGACCGGGAUCGCGUGAG [#1 Same State - Tryptophan B Attempt #11 (HarryS)]” is 1.7-fold lower in “apparent KD of MS2 coat protein” value: 33.9 nM for the first, 20.2 nM for the second.

Going from “AUGUUUGUGUGAGAUACCAGUGAGGCCACAUGAGGAUCACCCAUGUCCCUCACUCCGGCCCACCCUUGGCAGCUCUUAUAGUAAA [Exclusion Theophylline B GF 25]” to “UAUCCACAUGAGGAUCACCCAUGUAGGGAAGGAGCGGUGAUUUCACCAGGUAGGUCGCCUUACUGAGGAGAGCCGGUGGAAUCGU [Exclusion - Arginine A (Freestyle 31)]”, the “apparent KD of MS2 coat protein” value rises from 12.9 nM to 31.9 nM (2.5-fold).

For “GACAUGAGGAUCACCCAUGUUUGCUAUGAAGGAGCGUCGGAAAUGACAGGUAGGUCGCAUAGUAGGCCUUGUAUUUUGUGUGUUU [EAA #8]”, the “apparent KD of MS2 coat protein” value was 14.4 nM.
